{"source": "FireProtDB (doi:10.1016/s0006-3495(99)76955-9)", "proteins": {"B1": {"name": "Azurin wild type, P00282 (protein)", "chain": "MLRKLAAVSLLSLLSAPLLAAECSVDIQGNDQMQFNTNAITVDKSCKQFTVNLSHPGNLPKNVMGHNWVLSTAADMQGVVTDGMASGLDKDYLKPDDSRVIAHTKLIGSGEKDSVTFDVSKLKEGEQYMFFCTFPGHSALMKGTLTLK"}}, "conditions": "Pseudomonas aeruginosa (strain ATCC 15692 / DSM 22644 / CIP 104116 / JCM 14847 / LMG 12228 / 1C / PRS 101 / PAO1); pH 7.03; 20 °C; Thermal; DSC; phosphate buffer 10 mM; sodium chloride 40 microM; reversible: no; whole UniProt chain shown"}
{"protein": "B1", "values": [{"measurement": "unfolding enthalpy (calorimetric)", "value": 14.6, "unit": "kcal/mol"}, {"measurement": "unfolding free energy", "value": 14.3, "unit": "kcal/mol"}]}
